Experimental data from patent US20050152898A1 (BIOVATION, published 2005).
Substitutions are numbered along the chain they refer to.

T1: CD52 human leukocyte antigen (human, UniProt P31358 25-36)
T1 construct: whole, on cells; also called CD52 antigen
T1 chain (looked up): GQNDTSQTSSPS

B1: DIVH5/DIVK5 (antibody, human IgG1, V domains shown)
VH: EVQLLESGGGLVQPGGSLRLSCAGSGFTFTDFYMNWIRQPPGKAPEWLGFIRDKAKGYTTEYNPSVKGRFTISRDNSKNTLYLQMNSLRAEDTAVYYCAREGHTAAPFDYWGQGTLVTVSS
VL: DIQMTQSPSSLSASVGDRVTITCKASQNIDKYLNWYQQKPGKSPKLLIYNTNNLQTGVPSRFSGSGSGTDFTLTISSLQPEDIATYYCLQHISRPRTFGTGTKLELK
notes: also called DIVHv5/DIVKv5
B2: DIVH3/DIVK1 (antibody, human IgG1, V domains shown)
VH: EVKLQESGGGLVQPGGSMRISCSGSGFTFTDFYMNWIRQPPGKGPEWIGFIRDKAKGYTTEYNPSVKGRFTISRDNTQNTLHLQANTLRAEDTAVYYCAREGHTAAPFDYWGQGTTVTVSS
VL: B1 VL with K24R, S43A, L46S, T56S
notes: also called DIVHv3/DIVKv1
B3: DIVH3/DIVK5 (antibody, human IgG1, V domains shown)
VH: B2 VH
VL: B1 VL
notes: also called DIVHv3/DIVKv5
B4: DIVH3/DIVK4 (antibody, human IgG1, V domains shown)
VH: B2 VH
VL: B1 VL with S43A, L46S
notes: also called DIVHv3/DIVKv4

Target: T1, CD52 human leukocyte antigen
Assay: FACS on HUT-78 cells (CD52+), FITC anti-human IgG Fc, median fluorescence, 4-parameter fit; titre = 50% of maximum binding
Protocol: Human T-cell lymphoma cell line HUT-78 is CD52 positive and was used to assess binding of the modified antibodies of the present invention. In the present example, different concentrations of test antibody were incubated with the cells and the amount of bound antibody was assessed following incubation with a fluorescent-labelled reporter reagent. The reporter is measured using a fluorescence activated cell sorter (FACS).
For detection, the cells were incubated for 1 hour on ice with a 1:1000 dilution of FITC-labelled anti-human IgG Fc domain. This reagent is a goat anti-human IgG (Fc specific) obtained from Sigma (Poole, UK). The cells were washed as previously and re-suspended in 100 μl of PBS/2% FBS and transferred to 4 ml FACS tubes (Becton Dickinson) containing 900 μl of PBS/2% FBS/Propidium Iodide (1:1000). The cells were analysed using a conventional Becton Dickenson FACS Calibur instrument.
The binding of the test and control antibodies was determined using the Median Fluorescence value. The saturating concentration of antibody was determined from plots of the Median Fluorescence—Zero Antibody Median Fluorescence versus Concentration of antibody. The binding curves were fitted to a logistic 4 parameter sigmoidal equation using SigmaPlot, giving an excellent fit with 95% confidence levels.
With B1 the EC50 was 3 µg/mL.
Work on B2 yielded an EC50 of 9.6 µg/mL.
Work on B3 yielded an EC50 of 3.3 µg/mL.
B4 was tested, and the EC50 was 8.63 µg/mL.
